The record followed here is patent US20260125472A1 (HEFEI TG IMMUNOPHARMA, published 2026).

One test deals with T1, Trop2 protein (UniProt P09758 27-274).
T1 construct: Bought recombinant protein; also called Trop2-Biotin protein (biotin-labelled, bridging ELISA)
T1 sequence (looked up): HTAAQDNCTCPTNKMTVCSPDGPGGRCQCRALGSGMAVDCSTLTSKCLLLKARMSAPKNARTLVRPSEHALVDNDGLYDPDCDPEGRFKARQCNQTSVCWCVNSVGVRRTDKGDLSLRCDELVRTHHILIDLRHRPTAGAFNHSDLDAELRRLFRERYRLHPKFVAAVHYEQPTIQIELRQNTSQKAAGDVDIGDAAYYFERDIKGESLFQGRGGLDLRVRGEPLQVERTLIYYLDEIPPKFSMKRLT
Description: ELISA, coated Trop2 protein, OD450. From the text: In this example, the binding properties of the CD3×Trop2 and CD3×PDL1 bispecific antibody (the production method and the amino acid sequences of the heavy and light chains were shown in Example 1) were detected by using ELISA. The CD3E&D, Trop2, or PDL1 protein was coated onto 96-well plates by inventors, and the strength of the signal after the addition of the antibody was used to determine the binding properties of the antibody and the corresponding protein.
(2) Trop2 protein (purchased from Acro) was diluted to 2 μg/ml with PBS buffer, added to a 96-well plate at a volume of 100 μL/well, and placed at 4° C. overnight. The PBS buffer in the 96-well plate was aspirated, and the plate was washed 6 times with PBST (pH 7.2 PBS containing 0.1% Tween 20) buffer. Then, 200 μL/well PBS/10% BSA was added and incubated at 37° C. for 2 h for blocking. The blocking solution was removed, and the plate was washed six times with PBST. Then, the to-be-tested bispecific antibodies, Cross3×Trop2, Cross303×Trop2, Cross307×Trop2, Cross308×Trop2, Cross309×Trop2, Cross310×Trop2, Cross311×Trop2, Cross312×Trop2, Cross313×Trop2, Cross314×Trop2, Cross316×Trop2, Cross317×Trop2, Cross318×Trop2, Cross323×Trop2, Cross325×Trop2, Cross326×Trop2, and control IgG1LALA (purchased from Bio-Tech), serially diluted with PBST/0.05% BSA, were added at 100 μL/well and incubated at 37° C. for 1 h. The reaction system was removed, and the plate was washed 6 times with PBST. Then, HRP (horseradish peroxidase)-labeled anti-human secondary antibody (Fab specific) (purchased from Sigma) diluted with PBST/0.05% BSA at 100 μL/well. After the plate was washed six times with PBST, TMB (tetramethylbenzidine) was added at 80 μL/well, and incubated at room temperature for 3 min. 4 M sulfuric acid was added at 80 μL/well to terminate the reaction. The absorbance was read at 450 nm using a microplate reader.
Background: An ELISA detects its analyte on a solid surface through an enzyme-linked reagent.

The target of test [1] is T2, Trop2 on A-375-Trop2 melanoma cells (UniProt P09758 27-323, limits assumed).
T2 construct: whole, on cells
T2 sequence (looked up): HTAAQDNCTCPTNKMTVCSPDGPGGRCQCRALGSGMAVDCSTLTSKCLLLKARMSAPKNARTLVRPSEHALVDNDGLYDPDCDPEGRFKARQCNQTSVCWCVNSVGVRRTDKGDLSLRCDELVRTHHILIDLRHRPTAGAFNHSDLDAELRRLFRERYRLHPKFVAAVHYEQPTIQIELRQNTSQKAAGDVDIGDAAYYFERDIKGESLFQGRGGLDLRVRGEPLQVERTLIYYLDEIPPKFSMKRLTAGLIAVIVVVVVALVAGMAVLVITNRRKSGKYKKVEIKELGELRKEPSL
In words: flow cytometry, A-375-Trop2 cells, MFI [panel B]. The method, then:
(2) The tumor cells were diluted to 2×10⁶/ml with PBS and added to a 1.5 ml EP tube at a volume of 100 μl/tube, and goat serum was added thereto at 10 μl/tube. The cells were blocked at 4° C. for 30 min. The serially diluted bispecific antibodies, Cross3×Trop2, Cross303×Trop2, Cross307×Trop2, Cross308×Trop2, Cross309×Trop2, Cross310×Trop2, Cross311×Trop2, Cross312×Trop2, Cross313×Trop2, Cross314×Trop2, Cross316×Trop2, Cross317×Trop2, Cross318×Trop2, Cross323×Trop2, Cross325×Trop2, Cross326×Trop2, and Cross3×PDL1, Cross303×PDL1, Cross307×PDL1, Cross308×PDL1, Cross309×PDL1, Cross310×PDL1, Cross311×PDL1, Cross312×PDL1, Cross313×PDL1, Cross314×PDL1, Cross316×PDL1, Cross317×PDL1, Cross318×PDL1, Cross323×PDL1, Cross325×PDL1, Cross326×PDL1, and control hIgG1LALA (purchased from Bio-Tech) were added and incubated at 4° C. for 30 min. 1 ml of PBS was added to the EP tube, followed by centrifugation at 3500 rpm for 5 min at 4° C. The supernatant was discarded, and the cells were washed again with PBS. After centrifugation, the supernatant was completely discarded, and the cells were resuspended with PBS at 100 μl/tube. Alexa-647-labeled goat anti-human IgG secondary antibody (purchased from Jackson lab) was added at 1 μl/tube and incubated at 4° C. in the dark for 30 min. The cells were washed twice with PBS, and the supernatant was completely discarded after centrifugation. The cells were resuspended with PBS at 200 μl/tube and assay was performed using the flow cytometry.
A general note: Flow cytometry measures light scatter and fluorescence of single cells or particles in a stream.

The target in another test is T3, CD3E&D protein (UniProt P04234 22-105).
T3 construct: Purchased from Acro; also called CD3 E&D antigens; CD3E&D antigen protein
Description: SPR (Biacore 8K), antibody on CM5 chip, CD3 E&D antigen as analyte. Also on record: Fold change: reference not given here. The method, then: In a Biacore 8K (Cytiva) system, the antibody was diluted to 10 μg/mL in HBS-EP running buffer and coupled to a CM5 chip (Cytiva) at a flow rate of 10 μL/min.

T3 sequence (chain, as listed by the source limits assumed, chain 1 of 2): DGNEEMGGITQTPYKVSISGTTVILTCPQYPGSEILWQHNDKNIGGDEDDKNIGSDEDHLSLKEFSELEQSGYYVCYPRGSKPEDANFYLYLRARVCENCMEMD
T3 sequence (P04234 22-105 limits assumed, chain 2 of 2): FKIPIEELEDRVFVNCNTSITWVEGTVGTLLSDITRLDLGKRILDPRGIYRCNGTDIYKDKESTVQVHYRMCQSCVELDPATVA

B1: Cross3×Trop2 (bispecific antibody)
scFv: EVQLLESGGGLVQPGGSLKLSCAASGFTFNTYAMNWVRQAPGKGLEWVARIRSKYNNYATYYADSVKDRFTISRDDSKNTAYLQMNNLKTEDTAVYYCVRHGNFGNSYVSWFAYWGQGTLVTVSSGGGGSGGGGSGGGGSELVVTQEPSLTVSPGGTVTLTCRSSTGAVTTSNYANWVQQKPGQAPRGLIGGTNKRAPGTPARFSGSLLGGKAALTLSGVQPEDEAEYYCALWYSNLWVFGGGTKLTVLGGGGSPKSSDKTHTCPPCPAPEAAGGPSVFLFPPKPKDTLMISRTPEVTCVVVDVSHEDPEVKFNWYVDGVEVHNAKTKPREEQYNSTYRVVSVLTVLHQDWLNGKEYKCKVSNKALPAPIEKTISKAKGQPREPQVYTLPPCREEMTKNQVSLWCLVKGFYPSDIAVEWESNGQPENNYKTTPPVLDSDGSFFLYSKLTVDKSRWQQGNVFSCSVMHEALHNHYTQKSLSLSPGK
heavy: QVQLQQSGSELKKPGASVKVSCKASGYTFTNYGMNWVKQAPGQGLKWMGWINTYTGEPTYTDDFKGRFAFSLDTSVSTAYLQISSLKADDTAVYFCARGGFGSSYWYFDVWGQGSLVTVSSASTKGPSVFPLAPSSKSTSGGTAALGCLVKDYFPEPVTVSWNSGALTSGVHTFPAVLQSSGLYSLSSVVTVPSSSLGTQTYICNVNHKPSNTKVDKKVEPKSSDKTHTCPPCPAPEAAGGPSVFLFPPKPKDTLMISRTPEVTCVVVDVSHEDPEVKFNWYVDGVEVHNAKTKPREEQYNSTYRVVSVLTVLHQDWLNGKEYKCKVSNKALPAPIEKTISKAKGQPREPQVCTLPPSREEMTKNQVSLSCAVKGFYPSDIAVEWESNGQPENNYKTTPPVLDSDGSFFLVSKLTVDKSRWQQGNVFSCSVMHEALHNHYTQKSLSLSPGK
light: DIQLTQSPSSLSASVGDRVSITCKASQDVSIAVAWYQQKPGKAPKLLIYSASYRYTGVPDRFSGSGSGTDFTLTISSLQPEDFAVYYCQQHYITPLTFGAGTKVEIKRTVAAPSVFIFPPSDEQLKSGTASVVCLLNNFYPREAKVQWKVDNALQSGNSQESVTEQDSKDSTYSLSSTLTLSKADYEKHKVYACEVTHQGLSSPVTKSFNRGEC
notes: also called parental Cross3×Trop2 bispecific antibody
For B1, the concentration giving a half-maximal response (EC50 (read off the curve)) with Trop2 protein was approximately 0.008 µg/mL; in test [1], approximately 1 µg/mL.

B2: Cross303×Trop2 (bispecific antibody)
scFv: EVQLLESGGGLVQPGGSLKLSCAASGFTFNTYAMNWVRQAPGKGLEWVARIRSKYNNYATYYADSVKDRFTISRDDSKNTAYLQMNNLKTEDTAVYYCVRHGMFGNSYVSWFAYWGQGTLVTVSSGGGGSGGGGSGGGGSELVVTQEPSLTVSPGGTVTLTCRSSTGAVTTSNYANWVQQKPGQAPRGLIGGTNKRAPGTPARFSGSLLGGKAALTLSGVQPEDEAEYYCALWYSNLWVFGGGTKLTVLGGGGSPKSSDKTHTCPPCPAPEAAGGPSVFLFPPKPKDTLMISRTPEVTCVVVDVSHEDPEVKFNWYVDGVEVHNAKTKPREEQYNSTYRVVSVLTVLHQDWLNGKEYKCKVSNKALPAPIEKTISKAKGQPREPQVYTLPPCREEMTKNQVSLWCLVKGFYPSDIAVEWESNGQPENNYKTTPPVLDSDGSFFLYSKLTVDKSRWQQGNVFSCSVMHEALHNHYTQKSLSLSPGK
heavy: QVQLQQSGSELKKPGASVKVSCKASGYTFTNYGMNWVKQAPGQGLKWMGWINTYTGEPTYTDDFKGRFAFSLDTSVSTAYLQISSLKADDTAVYFCARGGFGSSYWYFDVWGQGSLVTVSSASTKGPSVFPLAPSSKSTSGGTAALGCLVKDYFPEPVTVSWNSGALTSGVHTFPAVLQSSGLYSLSSVVTVPSSSLGTQTYICNVNHKPSNTKVDKKVEPKSSDKTHTCPPCPAPEAAGGPSVFLFPPKPKDTLMISRTPEVTCVVVDVSHEDPEVKFNWYVDGVEVHNAKTKPREEQYNSTYRVVSVLTVLHQDWLNGKEYKCKVSNKALPAPIEKTISKAKGQPREPQVCTLPPSREEMTKNQVSLSCAVKGFYPSDIAVEWESNGQPENNYKTTPPVLDSDGSFFLVSKLTVDKSRWQQGNVFSCSVMHEALHNHYTQKSLSLSPGK
light: DIQLTQSPSSLSASVGDRVSITCKASQDVSIAVAWYQQKPGKAPKLLIYSASYRYTGVPDRFSGSGSGTDFTLTISSLQPEDFAVYYCQQHYITPLTFGAGTKVEIKRTVAAPSVFIFPPSDEQLKSGTASVVCLLNNFYPREAKVQWKVDNALQSGNSQESVTEQDSKDSTYSLSSTLTLSKADYEKHKVYACEVTHQGLSSPVTKSFNRGEC
For the molecule B2, the figures for the “EC50 (read off the curve)” value (with Trop2 protein; in test [1]) were approximately 0.008 µg/mL and approximately 1 µg/mL, respectively.

B3: Cross307×Trop2 (bispecific antibody)
scFv: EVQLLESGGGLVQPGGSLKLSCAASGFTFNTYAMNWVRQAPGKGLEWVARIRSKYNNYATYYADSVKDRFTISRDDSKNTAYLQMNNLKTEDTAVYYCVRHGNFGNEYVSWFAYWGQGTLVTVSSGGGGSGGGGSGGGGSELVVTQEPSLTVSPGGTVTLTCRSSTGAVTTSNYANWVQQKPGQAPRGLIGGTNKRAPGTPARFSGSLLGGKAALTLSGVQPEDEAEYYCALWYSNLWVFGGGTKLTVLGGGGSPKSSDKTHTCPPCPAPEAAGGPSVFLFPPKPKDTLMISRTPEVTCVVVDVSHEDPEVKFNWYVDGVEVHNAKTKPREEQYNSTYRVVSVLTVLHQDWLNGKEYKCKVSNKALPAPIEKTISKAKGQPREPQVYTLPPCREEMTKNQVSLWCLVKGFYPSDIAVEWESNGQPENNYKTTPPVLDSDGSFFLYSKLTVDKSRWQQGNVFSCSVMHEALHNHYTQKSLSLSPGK
heavy: QVQLQQSGSELKKPGASVKVSCKASGYTFTNYGMNWVKQAPGQGLKWMGWINTYTGEPTYTDDFKGRFAFSLDTSVSTAYLQISSLKADDTAVYFCARGGFGSSYWYFDVWGQGSLVTVSSASTKGPSVFPLAPSSKSTSGGTAALGCLVKDYFPEPVTVSWNSGALTSGVHTFPAVLQSSGLYSLSSVVTVPSSSLGTQTYICNVNHKPSNTKVDKKVEPKSSDKTHTCPPCPAPEAAGGPSVFLFPPKPKDTLMISRTPEVTCVVVDVSHEDPEVKFNWYVDGVEVHNAKTKPREEQYNSTYRVVSVLTVLHQDWLNGKEYKCKVSNKALPAPIEKTISKAKGQPREPQVCTLPPSREEMTKNQVSLSCAVKGFYPSDIAVEWESNGQPENNYKTTPPVLDSDGSFFLVSKLTVDKSRWQQGNVFSCSVMHEALHNHYTQKSLSLSPGK
light: DIQLTQSPSSLSASVGDRVSITCKASQDVSIAVAWYQQKPGKAPKLLIYSASYRYTGVPDRFSGSGSGTDFTLTISSLQPEDFAVYYCQQHYITPLTFGAGTKVEIKRTVAAPSVFIFPPSDEQLKSGTASVVCLLNNFYPREAKVQWKVDNALQSGNSQESVTEQDSKDSTYSLSSTLTLSKADYEKHKVYACEVTHQGLSSPVTKSFNRGEC
With B3, the “EC50 (read off the curve)” value is approximately 0.008 µg/mL with Trop2 protein and approximately 1 µg/mL in test [1].

B4: Cross3ZH07 (antibody, human IgG1, kappa, V domains shown)
VH: EVQLLESGGGLVQPGGSLKLSCAASGFTFNTYAMNWVRQAPGKGLEWVARIRSKYNNYATYYADSVKDRFTISRDDSKNTAYLQMNNLKTEDTAVYYCVRHGMFGNSYVSWFAYWGQGTLVTVSS
VL: ELVVTQEPSLTVSPGGTVTLTCRSSTGAVTTSNYANWVQQKPGQAPRGLIGGTNKRAPGTPARFSGSLLGGKAALTLSGVQPEDEAEYYCALWYPNPWVFGGGTKLTVLR
Consider B4, for which, in the test with CD3E&D protein, the Fold change worked out at 69.1, binding was characterised by a dissociation constant (Kd) of 11.4 nM, the koff was 0.00138 s⁻¹ and the kon came to 121000 M⁻¹ s⁻¹.

B5: Cross3ZH16 (antibody, human IgG1, kappa, V domains shown)
VH: EVQLLESGGGLVQPGGSLKLSCAASGFTFNTYAMNWVRQAPGKGLEWVARIRSKYNNYATYYADSVKDRFTISRDDSKNTAYLQMNNLKTEDTAVYYCVRHGNFGNSYVSWFAYWGQGTLVTVSS
VL: ELVVTQEPSLTVSPGGTVTLTCRSSTGAVTTSNYANWVQQKPGQAPRGLIGGTNKRAPGTPARFSGSLLGGKAALTLSGVQPEDEAEYYCALWYPNDWVFGGGTKLTVLR
In the test with CD3E&D protein, B5 registered a Fold change of 105, a Kd of 17.3 nM, a koff of 0.0243 s⁻¹ and a kon of 1.41e+06 M⁻¹ s⁻¹.

B6: Cross3ZH23 (antibody, human IgG1, kappa, V domains shown)
VH: EVQLLESGGGLVQPGGSLKLSCAASGFTFNTYAMNWVRQAPGKGLEWVARIRSKYNNYATYYADSVKDRFTISRDDSKNTAYLQMNNLKTEDTAVYYCVRHGNFGNDYVSWFAYWGQGTLVTVSS
VL: ELVVTQEPSLTVSPGGTVTLTCRSSTGAVTTSNYANWVQQKPGQAPRGLIGGTNKRAPGTPARFSGSLLGGKAALTLSGVQPEDEAEYYCALWYSNPWVFGGGTKLTVLR
In the test with CD3E&D protein, B6 showed a Fold change of 4090, a dissociation constant Kd of 675 nM, a koff of 0.055 s⁻¹ and a kon of 81500 M⁻¹ s⁻¹.

B7: Cross3ZH09 (antibody, human IgG1, kappa, V domains shown)
VH: EVQLLESGGGLVQPGGSLKLSCAASGFTFNTYAMNWVRQAPGKGLEWVARIRSKYNNYATYYADSVKDRFTISRDDSKNTAYLQMNNLKTEDTAVYYCVRHGNFGNSYVSWFLYWGQGTLVTVSS
VL: ELVVTQEPSLTVSPGGTVTLTCRSSTGAVTTSNYANWVQQKPGQAPRGLIGGTNKRAPGTPARFSGSLLGGKAALTLSGVQPEDEAEYYCALWYPNPWVFGGGTKLTVLR
In the test with CD3E&D protein, B7 returned a Fold change of 636, a Kd of 105 nM, a koff of 0.00296 s⁻¹ and a kon of 28100 M⁻¹ s⁻¹.

As a reminder, the EC50 (read off the curve) is the midpoint of the concentration-response curve. In general, Kd refers to the constant that tells how readily two partners part at equilibrium. A word on the koff: it is the rate constant with which the complex falls apart. The kon is a measure of how fast the partners come together.
